± gives the standard deviation of the averaged measurements.
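Further: PSI is a weighted mean of sequencing reads over stability bins, variants kept only with over 10 reads, mCherry proximal and sfGFP distal, peptide attached via GGGS linker.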

In the series the test system is Saccharomyces cerevisiae. The series is described as follows: protein stability index of tFT-peptide fusion (C-terminal peptide) (PSI (0-1 scale)); higher = more stable (slower turnover). To be noted: genetic background: wild type; temperature: 30 C.
LSPDSLGVLVEY registered a protein stability index of 0.6272 ± 0.0058. In turn, LSPGCLFLLPFL registered a protein stability index of 0.701 ± 0.066.

LSPLLSLPRCPT returned a protein stability index of 0.7 ± 0.04. The sequence LSPLPHGLPFST gave a protein stability index of 0.736 ± 0.015. Then LSPPLPRAPHLS, with 0.678 ± 0.077; and LSPPQRISLIPY, with 0.659 ± 0.03; and LSPPRSAPPPPR, with 0.699 ± 0.014. LSPSDSPSPPAS came in with a protein stability index of 0.6499 ± 0.0016. LSPTRPATRSPP showed a protein stability index of 0.6826 ± 0.0014. In the case of LSQPRDGMRWCA, the protein stability index worked out at 0.6191 ± 0.0035. LSRMTNFKEKEG had a protein stability index of 0.669 ± 0.03. Take LSSCVRVSFLFF: the protein stability index worked out at 0.588 ± 0.028. Then LSSPPHVRSSPF, with 0.695 ± 0.029.

Take LSSPPSRPFAPS: the protein stability index was determined as 0.721 ± 0.089. LSSPSPSCSLPP gave a protein stability index of 0.701 ± 0.077.

On to LSSPTHTPHPPS, for which the protein stability index stood at 0.701 ± 0.0097. LSSSWDLTHFDC showed a protein stability index of 0.714 ± 0.033. For the sequence LSTPASVLLSSG, the protein stability index was 0.682 ± 0.011.

Turning to LSTPPDLNPLIF, the protein stability index worked out at 0.654 ± 0.034. Then LSVEAGRGELLW, with 0.69 ± 0.067. The same measure for LSVGPIWFSCQA: 0.605 ± 0.023; for LSVLHATFGRCD: 0.645 ± 0.017; for LSVQVLSLRPRA: 0.688 ± 0.036. Take LSYCLLALFFPL: the protein stability index came out at 0.501 ± 0.009. The same measure for LTAGGGEACGPP: 0.625 ± 0.015. With LTFFRSSPPRPY, the protein stability index was 0.739 ± 0.031. LTGHVGNMWDAA yielded a protein stability index of 0.86 ± 0.025. Consider LTILEPYFLLGP, for which the protein stability index came out at 0.732 ± 0.21. Sequence LTILRSPLPSLS had a protein stability index of 0.701 ± 0.019. As to LTKTAHVGQLWL, the protein stability index turned out to be 0.708 ± 0.025. Consider LTLLFLHPFPST, for which the protein stability index was determined as 0.753 ± 0.1. In turn, LTNISKIKILRY registered a protein stability index of 0.653 ± 0.032. LTRPHPPPVRTP gave a protein stability index of 0.711 ± 0.083. In turn, LTSDGGLSGCSL displayed a protein stability index of 0.67 ± 0.029. LTWVVNSGKGRC displayed a protein stability index of 0.918 ± 0.087. On to LTYVQPTKGTLG, for which the protein stability index was determined as 0.654 ± 0.05. The same measure for LVCYHLSLPSVR: 0.675 ± 0.052.

With LVDHLEMSTTSL, the protein stability index came out at 0.724 ± 0.017. Then LVFLGLCGTDFV, with 0.676 ± 0.12; and LVFRSGWVSLIG, with 0.641 ± 0.044. In the case of LVGGRGSRSVEA, the protein stability index is 0.739 ± 0.12. LVGLCSVFPSLV came in with a protein stability index of 0.716 ± 0.008. The sequence LVHPPPPLLPPA displayed a protein stability index of 0.6 ± 0.018. In turn, LVKKVKSSLASL showed a protein stability index of 0.65 ± 0.076.

As to LVLERKVDSKRK, the protein stability index was 0.761 ± 0.084.

The sequence LVLGRCWMSVPR returned a protein stability index of 0.535 ± 0.014.

On to LVLSGSAFFYLG, for which the protein stability index is 0.666 ± 0.029.

The sequence LVLVEAPASRNP displayed a protein stability index of 0.72449 ± 0.00013.

Consider LVRCRKGEGRGA, for which the protein stability index was determined as 0.701 ± 0.032.

LVRDGQSHSVWN: the protein stability index came to 0.655 ± 0.098. As for LVRRTLWGSGCL, the protein stability index was determined as 0.666 ± 0.013. LVSGCLCRKVLV had a protein stability index of 0.531 ± 0.0017. LVVSLSYSFRSV: the protein stability index amounted to 0.585 ± 0.045. In the case of LWGSGVYGKNEC, the protein stability index is 0.703 ± 0.052. For the sequence LWKAGRIGTIWS, the protein stability index is 0.714 ± 0.016.

For LWLCLERFPCSR, the protein stability index stood at 0.74 ± 0.042. The same measure for LWPQFPPRQLVD: 0.755 ± 0.069; for LWPSLRRFHSTS: 0.714 ± 0.2; for LWVGGKRREVMG: 0.706 ± 0.032.

Take LWVPPRSGRFGG: the protein stability index was 0.681 ± 0.014. As to LWWASRLRVPTP, the protein stability index is 0.674 ± 0.093. In the case of LYCLVEGVYTLI, the protein stability index was 0.662 ± 0.06. The same measure for LYGREPAGAEPT: 0.633 ± 0.022. Turning to LYHARTIRQSAK, the protein stability index was determined as 0.701 ± 0.018.
